In article PMC11409674, “Raffinocyclicin is a novel plasmid-encoded circular bacteriocin produced by Lactococcus raffinolactis with broad-spectrum activity against many gram-positive food pathogens” (Applied and environmental microbiology, 2024):

Experiments:
[1] = tested on: proteases; set-up: method as in 4 sources, ref 33 = [33]; PMID 21948835; doi:10.1128/AEM.06348-11; 33 Masuda Y Ono H Kitagawa H Ito H Mu F Sawa N Zendo T Sonomoto K Identification and characterization of leucocyclicin Q, a novel cyclic bacteriocin produced by Leuconostoc mesenteroides TK41401 Appl ||| ref 27 = [27]; PMID 21057028; doi:10.1128/AEM.01173-10; 27 Borrero J Brede DA Skaugen M Diep DB Herranz C Nes IF Cintas LM Hernández PE Characterization of garvicin ML, a novel circular bacteriocin produced by Lactococcus garvieae DCC43, isolated from mall ||| ref 30 = [30]; PMID 29177092; doi:10.1099/mgen.0.000134; 30 van Heel AJ Montalban-Lopez M Oliveau Q Kuipers OP Genome-guided identification of novel head-to-tail cyclized antimicrobial peptides, exemplified by the discovery of pumilarin Microb Genom 2017 3 ||| ref 29 = [29]; PMID 18552180; doi:10.1128/AEM.00817-08; 29 Martin-Visscher LA van Belkum MJ Garneau-Tsodikova S Whittal RM Zheng J McMullen LM Vederas JC Isolation and characterization of carnocyclin A, a novel circular bacteriocin produced by Carnobacteri; conditions: cited from earlier work
[2] = molecular target: T1, proteinase K (Parengyodontium album, UniProt P06873); test: residual antimicrobial activity after proteinase K treatment; format: in vitro ADME; conditions: proteinase K 1 mg/mL, 37 °C, 4 h
T1 construct: purchased Sigma-Aldrich, St Louis, USA
T1 sequence (P06873 106-384): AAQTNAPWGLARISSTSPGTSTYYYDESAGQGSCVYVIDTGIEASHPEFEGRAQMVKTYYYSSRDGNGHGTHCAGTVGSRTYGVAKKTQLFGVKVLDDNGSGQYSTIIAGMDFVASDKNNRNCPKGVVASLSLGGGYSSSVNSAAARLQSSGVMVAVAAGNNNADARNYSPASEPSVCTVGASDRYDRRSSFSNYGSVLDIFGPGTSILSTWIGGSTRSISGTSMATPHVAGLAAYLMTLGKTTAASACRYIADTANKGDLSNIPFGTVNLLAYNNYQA

Substance | antimicrobial activity after protease treatment [1] | loss of activity when treated with proteinase K ([2]; indicator L. lactis HP) | Phenotype ([2]; 40 µL spotted around chloroform-inactivated producer spot, overlay L. lactis HP, 30 °C, 24 h) | Residual activity ([2]; 40 µL spotted around chloroform-inactivated producer spot, overlay L. lactis HP, 30 °C, 24 h, true halo treated/control (10 mM PBS pH 7.4) × 100) [%]
carnocyclin A (LVAYGIAQGTAEKVVSLINAGLTVGSIISILGGVTVGLSGVFTAVKAAIAKQGIKKAIQL; UniProt B2MVM5 5-64, looked up) [circular bacteriocin] | completely abolished | – | – | –
raffinocyclicin | – | over 90% | S | 7
